Measurements from US20110076693.

B1: Flag-Plk3 (protein)
chain: MEPAAGFLSPRPFQRAAAAPAPPAGPGPPPSALRGPELEMLAGLPTSDPGRLITDPRSGRTYLKGRLLGKGGFARCYEATDTETGSAYAVKVIPQSRVAKPHQREKILNEIELHRDLQHRHIVRFSHHFEDADNIYIFLELCSRKSLAHIWKARHTLLEPEVRYYLRQILSGLKYLHQRGILHRDLKLGNFFITENMELKVGDFGLAARLEPPEQRKKTICGTPNYVAPEVLLRQGHGPEADVWSLGCVMYTLLCGSPPFETADLKETYRCIKQVHYTLPASLSLPARQLLAAILRASPRDRPSIDQILRHDFFTKGYTPDRLPISSCVTVPDLTPPNPARSLFAKVTKSLFGRKKKSKNHAQERDEVSGLVSGLMRTSVGHQDARPEAPAASGPAPVSLVETAPEDSSPRGTLASSGDGFEEGLTVATVVESALCALRNCIAFMPPAEQNPAPLAQPEPLVWVSKWVDYSNKFGFGYQLSSRRVAVLFNDGTHMALSANRKTVHYNPTSTKHFSFSVGAVPRALQPQLGILRYFASYMEQHLMKGGDLPSVEEVEVPAPPLLLQWVKTDQALLMLFSDGTVQVNFYGDHTKLILSGWEPLLVTFVARNRSACTYLASHLRQLGCSPDLRQRLRYALRLLRDRSPA
B2: Flag-Plk2 (protein)
chain: MELLRTITYQPAASTKMCEQALGKGCGADSKKKRPPQPPEESQPPQSQAQVPPAAPHHHHHHSHSGPEISRIIVDPTTGKRYCRGKVLGKGGFAKCYEMTDLTNNKVYAAKIIPHSRVAKPHQREKIDKEIELHRILHHKHVVQFYHYFEDKENIYILLEYCSRRSMAHILKARKVLTEPEVRYYLRQIVSGLKYLHEQEILHRDLKLGNFFINEAMELKVGDFGLAARLEPLEHRRRTICGTPNYLSPEVLNKQGHGCESDIWALGCVMYTMLLGRPPFETTNLKETYRCIREARYTMPSSLLAPAKHLIASMLSKNPEDRPSLDDIIRHDFFLQGFTPDRLSSSCCHTVPDFHLSSPAKNFFKKAAAALFGGKKDKARYIDTHNRVSKEDEDIYKLRHDLKKTSITQQPSKHRTDEELQPPTTTVARSGTPAVENKQQIGDAIRMIVRGTLGSCSSSSECLEDSTMGSVADTVARVLRGCLENMPEADCIPKEQLSTSFQWVTKWVDYSNKYGFGYQLSDHTVGVLFNNGAHMSLLPDKKTVHYYAELGQCSVFPATDAPEQFISQVTVLKYFSHYMEENLMDGGDLPSVTDIRRPRLYLLQWLKSDKALMMLFNDGTFQVNFYHDHTKIIICSQNEEYLLTYINEDRISTTFRLTTLLMSGCSSELKNRMEYALNMLLQRCN

Target: GST-PBIPtide-A6 [GST: P08515]

Protein	in vitro kinase assay of Flag immunoprecipitates, 32P incorporated into GST-PBIPtide-A6
B1	Plk1, but not Plk2 or Plk3, phosphorylates and binds to the T78 motif of PBIPtides
B2	Plk1, but not Plk2 or Plk3, phosphorylates and binds to the T78 motif of PBIPtides
